Values of other authors as cited in article PMC9206673.

How the values were obtained:
[1] = target: neurotransmitter receptor peptide

Chain of Gephyrin (Q8BUV3 whole entry): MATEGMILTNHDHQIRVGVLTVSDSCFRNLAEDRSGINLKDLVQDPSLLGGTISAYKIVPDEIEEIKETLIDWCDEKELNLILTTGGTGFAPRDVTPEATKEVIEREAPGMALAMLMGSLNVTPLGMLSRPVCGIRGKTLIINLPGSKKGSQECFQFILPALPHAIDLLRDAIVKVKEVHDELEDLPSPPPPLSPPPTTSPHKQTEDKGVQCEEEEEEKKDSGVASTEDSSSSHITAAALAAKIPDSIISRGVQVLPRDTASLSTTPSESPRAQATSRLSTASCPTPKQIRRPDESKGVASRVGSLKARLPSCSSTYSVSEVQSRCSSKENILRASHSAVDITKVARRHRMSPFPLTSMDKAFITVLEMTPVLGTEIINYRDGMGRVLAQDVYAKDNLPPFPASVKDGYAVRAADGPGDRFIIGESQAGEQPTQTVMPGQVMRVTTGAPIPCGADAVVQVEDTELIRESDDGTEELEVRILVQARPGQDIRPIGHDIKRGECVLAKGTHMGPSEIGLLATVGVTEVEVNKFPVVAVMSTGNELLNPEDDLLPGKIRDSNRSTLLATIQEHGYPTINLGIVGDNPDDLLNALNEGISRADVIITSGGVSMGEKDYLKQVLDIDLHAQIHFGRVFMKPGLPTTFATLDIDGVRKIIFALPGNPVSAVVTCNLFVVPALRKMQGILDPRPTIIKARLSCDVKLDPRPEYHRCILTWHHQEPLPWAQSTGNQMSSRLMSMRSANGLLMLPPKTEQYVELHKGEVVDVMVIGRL

Gephyrin (from UniProt Q8BUV3)
Kd [1]: 0.14 µM | Kd (gephyrin-binding peptide): 0.00014 µM
